Here are results for 1 molecule from paper PMC4536637, “Unique Toll-Like Receptor 4 Activation by NAMPT/PBEF Induces NFκB Signaling and Inflammatory Lung Injury” (Scientific Reports, 2015).

This test deals with T1, recombinant human TLR4 (Toll-like receptor 4) (human, UniProt O00206 24-631).
T1 construct: Toll-like receptor 4, human, recombinant; No catalogue number is printed; also called rTLR4; source: bought: R&D Systems
In words: SPR; Bio-Rad ProteOn XPR36, GLC chip; Bethyl PBEF antibody covalently immobilised (5000 RU); rPBEF only (100 nM), rTLR4 only (1 uM) and pre-mixed rPBEF-rTLR4 injected over the antibody surface; PBST (10 mM phosphate, 150 mM NaCl, 0.05% Tween20, pH 7.4). The following applies: both partners purified. For orientation: SPR reads the build-up and loss of mass on a sensor chip optically.

T1 sequence (O00206 24-631): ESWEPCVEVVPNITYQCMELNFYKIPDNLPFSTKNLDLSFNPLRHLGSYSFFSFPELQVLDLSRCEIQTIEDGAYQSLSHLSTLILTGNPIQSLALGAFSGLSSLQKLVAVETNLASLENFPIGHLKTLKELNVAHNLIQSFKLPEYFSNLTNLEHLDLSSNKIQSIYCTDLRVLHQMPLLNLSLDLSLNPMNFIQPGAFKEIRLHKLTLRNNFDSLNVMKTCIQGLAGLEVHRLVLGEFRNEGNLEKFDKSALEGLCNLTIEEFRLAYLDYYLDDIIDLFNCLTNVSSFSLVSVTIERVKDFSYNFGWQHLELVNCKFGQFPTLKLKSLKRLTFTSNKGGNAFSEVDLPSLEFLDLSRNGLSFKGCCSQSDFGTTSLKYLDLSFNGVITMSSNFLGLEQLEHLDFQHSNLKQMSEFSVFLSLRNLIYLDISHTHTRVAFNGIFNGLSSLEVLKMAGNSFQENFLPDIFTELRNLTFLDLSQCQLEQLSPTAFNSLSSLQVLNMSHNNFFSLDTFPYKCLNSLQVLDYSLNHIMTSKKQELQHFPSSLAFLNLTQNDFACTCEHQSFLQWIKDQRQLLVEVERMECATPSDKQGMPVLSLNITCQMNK

B1: recombinant human NAMPT/PBEF (nicotinamide phosphoribosyl-transferase / pre-B cell colony-enhancing factor) (natural protein, UniProt P43490 1-491, looked up)
chain: MNPAAEAEFNILLATDSYKVTHYKQYPPNTSKVYSYFECREKKTENSKLRKVKYEETVFYGLQYILNKYLKGKVVTKEKIQEAKDVYKEHFQDDVFNEKGWNYILEKYDGHLPIEIKAVPEGFVIPRGNVLFTVENTDPECYWLTNWIETILVQSWYPITVATNSREQKKILAKYLLETSGNLDGLEYKLHDFGYRGVSSQETAGIGASAHLVNFKGTDTVAGLALIKKYYGTKDPVPGYSVPAAEHSTITAWGKDHEKDAFEHIVTQFSSVPVSVVSDSYDIYNACEKIWGEDLRHLIVSRSTQAPLIIRPDSGNPLDTVLKVLEILGKKFPVTENSKGYKLLPPYLRVIQGDGVDINTLQEIVEGMKQKMWSIENIAFGSGGGLLQKLTRDLLNCSFKCSYVVTNGLGINVFKDPVADPNKRSKKGRLSLHRTPAGNFVTLEEGKGDLEEYGQDLLHTVFKNGKVTKSYSFDEIRKNAQLNIELEAAHH
notes: nicotinamide phosphoribosyl-transferase (NAMPT/PBEF/visfatin), human, bioactive non-denatured recombinant protein; also called rPBEF; visfatin; source: bought: MBL International
As for B1, the binding result is reported as “binds”.
